Reference: US20100119506A1, “Effectors of PAR-2 Activation and Their Use in the Modulation of Inflammation” (BOEHRINGER INGELHEIM INTERNATIONAL GMBH, priority 2008, published 2010)
Numbering of substitutions follows the chain as printed.

Columns and labels:
[1] = biological target: PAR-2 peptide (Homo sapiens, UniProt P55085); assay: ELISA binding to PAR-2 peptide; settings: peptide coupled to Transferrin
Experimental: (§1) The molecular selectivity of antibodies for PAR-2 versus PAR-1 and PAR-4 was assessed using peptides derived from the N-terminal regions of all three PARs: […]

[2] = biological target: T1, PAR-1 peptide (Homo sapiens, UniProt P25116); assay: ELISA binding to PAR-1 peptide
T1 sequence (P25116 38-66 limits assumed): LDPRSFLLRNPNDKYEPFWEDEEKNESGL
Experimental: as §1

[3] = biological target: T2, PAR-4 peptide (Homo sapiens, UniProt Q96RI0, C54S); assay: ELISA binding to PAR-4 peptide
T2 sequence (Q96RI0 44-71 C54S): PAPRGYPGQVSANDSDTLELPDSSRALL
Experimental: as §1

[4] = biological target: T3, PAR-2 (Homo sapiens, UniProt P55085); assay: Binding to PAR-2 transfected HEK293 cells; type: cell-based; design: expressed in transfected cells; host or cells: HEK293; settings: for Ratio of EC50 Fab EC50 IgG: HEK-PAR-2 binding; for EC50: Fab, read-out: Binding of Fab to HEK-PAR-2 (#3) (3RBO64) EC50
T3 sequence (P55085 26-397): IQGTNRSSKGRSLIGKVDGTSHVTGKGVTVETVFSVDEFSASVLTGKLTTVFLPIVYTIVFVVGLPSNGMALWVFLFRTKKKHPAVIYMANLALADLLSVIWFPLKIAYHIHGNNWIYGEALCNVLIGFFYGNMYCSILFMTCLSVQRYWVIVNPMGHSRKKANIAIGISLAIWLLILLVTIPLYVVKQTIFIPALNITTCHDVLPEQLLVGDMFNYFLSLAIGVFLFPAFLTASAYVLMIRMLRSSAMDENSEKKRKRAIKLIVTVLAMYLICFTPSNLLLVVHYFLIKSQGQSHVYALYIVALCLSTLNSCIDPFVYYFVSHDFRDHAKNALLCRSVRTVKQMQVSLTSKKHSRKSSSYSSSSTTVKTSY
Text: These Fabs were then converted to the IgG4_Pro (“IgG4p”) format. The IgG4_Pro antibodies consist of the variable VH and VL regions derived from corresponding Fabs fused to the constant regions of human IgG4 including a Ser241Pro mutation in the hinge region of the H-chain. The proline substitution in the hinge region is known to prevent the formation of half-molecules in natural human IgG4 molecules (Angal et al. (1993) Molec. Immunol. 30:105-108).

[5] = biological target: T4, PAR-1 (Homo sapiens, UniProt P25116); assay: Thrombin-induced calcium response (FLIPR) in A549 cells; type: cell-based; settings: antibody concentrations up to 300 nM
T4 construct: endogenous in cells; host or cells: A549
T4 sequence (P25116 22-425): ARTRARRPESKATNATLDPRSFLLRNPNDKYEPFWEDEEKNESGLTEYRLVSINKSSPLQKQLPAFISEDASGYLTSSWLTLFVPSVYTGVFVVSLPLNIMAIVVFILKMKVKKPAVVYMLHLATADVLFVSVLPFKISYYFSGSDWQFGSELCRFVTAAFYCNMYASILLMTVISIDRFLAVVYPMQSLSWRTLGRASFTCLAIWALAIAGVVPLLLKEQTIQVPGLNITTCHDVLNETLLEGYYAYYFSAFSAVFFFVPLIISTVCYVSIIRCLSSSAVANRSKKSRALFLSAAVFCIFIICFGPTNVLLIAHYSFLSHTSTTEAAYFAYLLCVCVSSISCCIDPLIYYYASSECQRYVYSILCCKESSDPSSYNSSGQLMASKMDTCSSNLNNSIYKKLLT
Text: (§2) Thrombin activates PAR-1, whereas PAR-2 is activated by trypsin in A549 cells.

[6] = biological target: T3, PAR-2; assay: Trypsin induced calcium response (FLIPR) in A549 cells; type: cell-based; design: expressing endogenous PAR-2; endogenous in cells; host or cells: A549; settings: for inhibition of trypsin mediated calcium response/release in A549 (in words): full antibodies
Experimental: Using A549 cells, PAR-2 activation was measured by detecting the calcium response following trypsin stimulation. Fabs were tested in this assay for their ability to inhibit this response. […] Antibody concentrations are expressed as μg/ml (FIG. 6).
as §2

[7] = biological target: T5, mouse PAR-2 (Mus musculus, UniProt P55086); assay: FLIPR trypsin-induced calcium release in mouse LLC cells; type: cell-based
T5 construct: endogenous in cells; host or cells: LLC (mouse Lewis lung carcinoma)
T5 sequence (P55086 26-399): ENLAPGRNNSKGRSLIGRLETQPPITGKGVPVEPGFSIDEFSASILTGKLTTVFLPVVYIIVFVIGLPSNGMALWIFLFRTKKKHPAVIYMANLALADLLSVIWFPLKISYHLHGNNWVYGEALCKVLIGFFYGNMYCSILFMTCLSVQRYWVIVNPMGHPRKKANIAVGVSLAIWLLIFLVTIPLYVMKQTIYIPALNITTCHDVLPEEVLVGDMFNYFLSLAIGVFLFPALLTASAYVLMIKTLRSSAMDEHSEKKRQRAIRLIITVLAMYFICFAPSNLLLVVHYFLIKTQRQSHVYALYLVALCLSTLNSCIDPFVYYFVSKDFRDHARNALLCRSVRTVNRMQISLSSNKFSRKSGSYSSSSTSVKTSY
Experimental: To further assess functional cross-reactivity with mouse PAR-2, the antibodies were tested in FLIPR assays with the mouse Lewis lung carcinoma (LLC) cell line.

B1: Ab4999: affinity matured from Ab3777, L-CDR3 optimized; light chain SEQ ID NO:27, heavy chain SEQ ID NO:7 (antibody, V domains shown)
VH: QVQLVESGGGLVQPGGSLRLSCAASGFTFSSYAMNWVRQAPGKGLEWVSTISYSSSATSYADSVKGRFTISRDNSKNTLYLQMNSLRAEDTAVYYCARIQNDPMDVWGQGTLVTVSS
VL: DIELTQPPSVSVAPGQTARISCSGDNLGKKYVQWYQQKPGQAPVLVIYDDSNRPSGIPERFSGSNSGNTATLTISGTQAEDEADYYCQTWDYSSIRDETNVFGGGTKLTVLGQ
modifications: Antibody identified via phage display; Antibody modified via affinity maturation
- binding to PAR-2 peptide (in words) [1]: specific binding
- binding to PAR-1 peptide (in words) [2]: did not exhibit detectable binding
- binding to PAR-4 peptide (in words) [3]: no binding
- Ratio of EC50 Fab EC50 IgG [4]: 0.3

B2: Ab5151: cross-cloned: light chain of Ab4999 combined with the heavy chain of Ab5007 (antibody, V domains shown)
VH: B1 VH with T50A, Y53F, S55G, S56H, A57L, S59G
VL: B1 VL
- binding to PAR-2 peptide (in words) [1]: specific binding
- binding to PAR-1 peptide (in words) [2]: did not exhibit detectable binding
- binding to PAR-4 peptide (in words) [3]: no binding
- inhibition of the thrombin induced calcium response (in words) [5]: no inhibition
- inhibition of trypsin mediated calcium response/release in A549 (in words) [6]: significant inhibition

B3: Ab4994: affinity matured from Ab3777, H-CDR2 optimized; heavy chain SEQ ID NO:21, light chain SEQ ID NO:6 (antibody, V domains shown)
VH: B1 VH with T50A, S55G, S56H, A57L, S59G
VL: DIELTQPPSVSVAPGQTARISCSGDNLGKKYVQWYQQKPGQAPVLVIYDDSNRPSGIPERFSGSNSGNTATLTISGTQAEDEADYYCSSWDVGSDGWVFGGGTKLTVLGQ
modifications: Antibody modified via affinity maturation; Antibody identified via phage display
- EC50 [4]: 1.9 nM
- Ratio of EC50 Fab EC50 IgG [4]: 4.8

B4: Ab5007: affinity matured from Ab3777, H-CDR2 optimized; heavy chain SEQ ID NO:26, light chain SEQ ID NO:6 (antibody, V domains shown)
VH: B1 VH with T50A, Y53F, S55G, S56H, A57L, S59G
VL: B3 VL
modifications: Antibody modified via affinity maturation; Antibody identified via phage display
- EC50 [4]: 9.66 nM
- Ratio of EC50 Fab EC50 IgG [4]: 19.3

B5: Ab5003: affinity matured from Ab3777, H-CDR2 optimized; heavy chain SEQ ID NO:24, light chain SEQ ID NO:6 (antibody, V domains shown)
VH: B1 VH with T50A, S54K, S55G, S56H, A57L, S59G
VL: B3 VL
modifications: Antibody modified via affinity maturation; Antibody identified via phage display
- EC50 [4]: 7.03 nM
- Ratio of EC50 Fab EC50 IgG [4]: 15.3

B6: Ab4997: affinity matured from Ab3777, H-CDR2 optimized; heavy chain SEQ ID NO:23, light chain SEQ ID NO:6 (antibody, V domains shown)
VH: B1 VH with T50A, S54N, S55G, S56K, A57L, T58K, S59G
VL: B3 VL
modifications: Antibody modified via affinity maturation; Antibody identified via phage display
- EC50 [4]: 3.03 nM
- Ratio of EC50 Fab EC50 IgG [4]: 8.0

B7: Par-C: codon-optimized anti-PAR-2 antibody; Ab4999 light chain (SEQ ID NO:37), Ab5007 or Ab5151 heavy chain (SEQ ID NO:39) (antibody, V domains shown)
VH: B1 VH with Q3E, T50A, Y53F, S55G, S56H, A57L, S59G
VL: B1 VL
modifications: Optimized cDNA sequence of variable region of Ab5007 or Ab5151 heavy chain; Optimized cDNA sequence of variable region of Ab4999 light chain
- inhibition of trypsin-induced calcium release in LLC cells (in words) [7]: efficient inhibition
- IC50 ([7]; trypsin-induced, value (SD)): 0.7 nM
- inhibition of trypsin mediated calcium response/release in A549 (in words) [6]: potent inhibition
- IC50 ([6]; trypsin stimulated, value (SD)): 1 nM
